± gives the uncertainty stated by the source.
Assay: protein stability index of a GFP-peptide fusion (yeast GPS) (PSI 1-4); higher = more stable; sorted into four equal gates, so the index is relative within each strain
Method in brief: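 Each library plasmid carries Cherry plus GFP with a tiled 17-residue yeast protein peptide fused downstream, and the pooled library was carried in yeast. Mid-log cultures in leucine-free medium were sorted into four equal gates by GFP/Cherry ratio. Reads from Illumina sequencing of PCR-amplified plasmids from each gate were assigned to strains by barcodes. Per peptide, the protein stability index was computed as the summed products of gate read frequency and gate number.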

| Sequence | protein stability index (doa10∆) | protein stability index (pdr5∆) | protein stability index (san1∆) | protein stability index (ubr1∆) |
| --- | --- | --- | --- | --- |
| WCTTCKSAENIIKMTIP [RET1] | 3.08 ± 0.077 | 3.1 ± 0.095 | 3.11 ± 0.067 | 3.03 ± 0.071 |
| WDDHTKKPLSMALNKVL [CDC53] | 1.99 ± 0.069 | 2.29 ± 0.076 | 2.36 ± 0.056 | 1.94 ± 0.048 |
| WDLVDERTKQRTAKAYL [PRP8] | 3.18 ± 0.12 | 3.6 ± 0.23 | 3.09 ± 0.074 | 3.1 ± 0.1 |
| WEHTAAEDQILANFVAK [SRB8] | – | 2.5 ± 0.17 | – | 2.57 ± 0.11 |
| WEQLKITVVPVVAAAED [QCR6] | 1.89 ± 0.059 | 2.14 ± 0.059 | 1.99 ± 0.099 | 2.03 ± 0.033 |
| WIKFDQELYNELCKKNE [RPN7] | 3.12 ± 0.13 | 3.05 ± 0.28 | 2.79 ± 0.17 | 3.1 ± 0.17 |
| WKQDLTKEEAIKLASDA [PUP1] | 2.81 ± 0.19 | 3.16 ± 0.14 | 2.2 ± 0.14 | 3.01 ± 0.16 |
| WKYNNFLQKFEIAFHLT [YML103C/NUP188] | 2.36 ± 0.048 | 2.19 ± 0.032 | 2.01 ± 0.052 | 2.36 ± 0.027 |
| WLAEKFQKETNMKVTIL [PRP28] | 2.81 ± 0.18 | 3.17 ± 0.11 | 3.27 ± 0.25 | 2.79 ± 0.11 |
| WNLLRSLYIFFTTLLES [YML103C/NUP188] | 2.08 ± 0.058 | 1.58 ± 0.044 | 1.69 ± 0.06 | 1.43 ± 0.028 |
| WNVEKFKKDFEVNISSL [RPC40] | 2.03 ± 0.11 | 2.98 ± 0.12 | 2.6 ± 0.084 | 2.59 ± 0.082 |
| WPIVQKTYEPVLNEDDL [RPN5] | 2.32 ± 0.068 | 2.59 ± 0.11 | 1.85 ± 0.098 | 2.27 ± 0.071 |
| WPQSKNCEYEDPPNEGD [RPB3] | 3.45 ± 0.25 | – | – | 3.2 ± 0.14 |
| WSEISNELPDIEALYDD [RPN2] | 3.49 ± 0.29 | 3.57 ± 0.25 | 3.29 ± 0.16 | 3.12 ± 0.11 |
| WSSEFAKWAPTLRTISF [SNF2] | 2.36 ± 0.057 | 2.41 ± 0.043 | 2.78 ± 0.063 | 2.47 ± 0.056 |
| WTMAFRTMDDIKDSVRE [ECM29] | – | 2.5 ± 0.16 | 2.67 ± 0.11 | 2.66 ± 0.12 |
| YACISSRPGQSGRCDGY [RPS8A] | 3.02 ± 0.1 | 3.21 ± 0.12 | 3.35 ± 0.097 | 3.28 ± 0.046 |
| YCDKNFRENMSKEETVD [PRE3] | 3.02 ± 0.076 | 3.09 ± 0.073 | 3.04 ± 0.066 | 2.92 ± 0.049 |
| YDALLSINVHSNNITSG [RET1] | 2.52 ± 0.061 | 2.66 ± 0.057 | 2.59 ± 0.059 | 2.76 ± 0.04 |
| YDRKKLPRKEVDDVLGG [RPC11] | 3.2 ± 0.1 | 3.64 ± 0.14 | 3.29 ± 0.065 | 3.32 ± 0.099 |
| YDSDSDSSVEDSTDNEN [LIN1] | 3.08 ± 0.071 | 2.95 ± 0.1 | 2.91 ± 0.12 | 3.1 ± 0.042 |
| YDSRTTIFSPEGRLYQV [PRE9] | 3.02 ± 0.1 | 3.31 ± 0.075 | 2.97 ± 0.078 | 3.09 ± 0.063 |
| YDYYALQLLPLQKAVRG [SNF2] | 1.63 ± 0.05 | 2.24 ± 0.044 | 1.87 ± 0.09 | 1.74 ± 0.035 |
| YEEFRDVAIENNTLSRY [RRP43] | 3.24 ± 0.042 | 3.25 ± 0.043 | 3.178 ± 0.029 | 3.2 ± 0.035 |
| YEIRDIDQDIHGIVFQH [SSN2] | 2.5 ± 0.049 | 2.6 ± 0.056 | 2.72 ± 0.051 | 2.75 ± 0.033 |
| YELYINKLTILGRDYPI [IRR1] | 1.31 ± 0.032 | 1.57 ± 0.038 | 1.44 ± 0.055 | 2.04 ± 0.032 |
| YESIATYASVTGLFTLE [RPN7] | – | – | – | 1.96 ± 0.29 |

| Sequence | protein stability index (doa10∆) | protein stability index (pdr5∆) | protein stability index (san1∆) | protein stability index (ubr1∆) |
| --- | --- | --- | --- | --- |
| YEYAEHDLLQIIHFHSH [SSN3] | 2.31 ± 0.062 | 2.59 ± 0.054 | 2.5 ± 0.045 | 2.63 ± 0.04 |
| YFKLDLTSDLVYFGDEN [RRI2] | 2.09 ± 0.15 | 2.47 ± 0.3 | – | 1.48 ± 0.08 |
| YFLDVKCPGCLNITTVF [RPS27A] | 2.64 ± 0.054 | 2.6 ± 0.055 | 2.19 ± 0.1 | 2.85 ± 0.054 |
| YGILSIDDLIHEIITVG [RPL7A] | 2.36 ± 0.079 | 2.37 ± 0.1 | 2.58 ± 0.11 | 1.56 ± 0.061 |
| YGITHGLTNWAAAYATG [RPL5] | 2.17 ± 0.086 | 2.43 ± 0.067 | 2.28 ± 0.09 | 2.26 ± 0.056 |
| YGNRAEQFLETDSDFAK [SRP68] | 3.15 ± 0.12 | 2.99 ± 0.08 | 3.26 ± 0.083 | 3.23 ± 0.065 |
| YGPPGTGKTLLARACAA [RPT5] | 2.5 ± 0.13 | 2.53 ± 0.081 | 2.29 ± 0.18 | – |
| YGVSFFTIQSFVSSLSN [BRR2] | 1.47 ± 0.052 | 1.32 ± 0.058 | 1.18 ± 0.087 | 1.42 ± 0.054 |
| YIKYNILLTSISRERDL [SRP68] | 1.69 ± 0.07 | 1.58 ± 0.062 | 1.83 ± 0.12 | 1.91 ± 0.094 |
| YINDVHLLYPPHIIAVA [SSN8] | 1.74 ± 0.057 | 1.46 ± 0.041 | 2.15 ± 0.072 | 1.67 ± 0.065 |
| YINVSRGTDIDRINYTE [SRB5] | – | – | – | 3.02 ± 0.22 |
| YKDSLALINDLLREFKK [RPN6] | – | 2.42 ± 0.22 | 1.86 ± 0.22 | 3.21 ± 0.23 |
| YKFLDQNSDASTLEPTL [YIL149C/MLP2] | 2.24 ± 0.11 | 1.65 ± 0.092 | 2.27 ± 0.09 | 2.67 ± 0.18 |
| YKKIPLLGPTLEDHTPP [QCR10] | 2.34 ± 0.05 | 2.59 ± 0.057 | 2.42 ± 0.083 | 2.76 ± 0.029 |
| YKLTNDEEGIFSRFVDQ [YCG1] | 2.94 ± 0.12 | 2.83 ± 0.13 | 3 ± 0.085 | 2.94 ± 0.057 |
| YLAKELNLTGPKVPEDI [RPN1] | 3.26 ± 0.23 | 3.24 ± 0.27 | 2.38 ± 0.24 | – |
| YLGEGPRMVRDVFRLAR [RPT3] | 2.79 ± 0.14 | 2.96 ± 0.053 | 2.8 ± 0.14 | 2.88 ± 0.09 |
| YLGTKVELPYGAHGYSG [PRE1] | 2.77 ± 0.18 | 2.38 ± 0.11 | 2.5 ± 0.1 | 2.96 ± 0.086 |
| YLHNVELGEKKNEKLKF [ISW2] | 2.84 ± 0.083 | 2.68 ± 0.094 | 2.89 ± 0.096 | 2.87 ± 0.1 |
| YLIKLLGFEVKDQALIG [SIR2] | 1.92 ± 0.061 | 2.08 ± 0.06 | 2.1 ± 0.061 | 2.73 ± 0.087 |
| YLREDQMIDTSILPTRD [NUT1] | 3.21 ± 0.069 | 2.98 ± 0.068 | 2.94 ± 0.072 | 2.42 ± 0.048 |
| YMEKGTQLDDLQHELMI [YML103C/NUP188] | 2.62 ± 0.058 | 2.31 ± 0.059 | 2.19 ± 0.063 | 2.25 ± 0.035 |
| YMVSRAIRDGVIEAKIN [RPN3] | – | 3.28 ± 0.17 | 2.95 ± 0.12 | 2.8 ± 0.15 |
| YNLLVKISLHKREYLEV [RPN5] | 1.5 ± 0.1 | 1.21 ± 0.12 | 1.34 ± 0.17 | 1.43 ± 0.092 |
| YPDFRHYGLAVDIYTHF [DIS3] | 2.17 ± 0.041 | 2.32 ± 0.041 | 1.9 ± 0.066 | 2.2 ± 0.031 |
| YPDLCSIYDKWTDPNLK [RPN1] | 2.69 ± 0.091 | 2.66 ± 0.072 | 2.21 ± 0.11 | 2.93 ± 0.085 |
| YPDLQPFVLAENMWPFS [CDC53] | 1.68 ± 0.05 | 2.09 ± 0.044 | 2.01 ± 0.055 | 1.71 ± 0.044 |

Source: the supplement of paper PMC9732359
